Results published in patent US20230365662A1.
Numbering of substitutions follows the chain as printed. Names and notes keep the numbering of the source. Values joined by “and” are separate entries in the source; they are usually repeats but may differ in a detail not shown here. Equal entries are not always repeated.

B1: KB001 parental mouse Fab VH variant A103K (Fab, V domains shown)
VH: EVQLKQSGPGLVAPSQSLSITCTVSGFSLSIYSVHWVRQPPGKGLEWLGMIWGGGSSDYNSALKSRLSISKDNSKSQVFLKMNSLQTDDTAMYYCARNGNFYKMDYWGQGTSVTVSS
VL: QIVLTQSPAIMSASLGERVTMTCTASSSVSSSFLHWYQQKPGSSPQLWIYSTSNLASGVPARFSGSGSGTSYSLTISSMEAEDAATYYCHQYHHSPYIYTFGGGTKLEIK
B2: KB001 parental mouse Fab VH variant Y106W (Fab, V domains shown)
VH: B1 VH with K103A, Y106W
VL: B1 VL
B3: KB001 parental mouse Fab VH variant Y106I (Fab, V domains shown)
VH: B1 VH with K103A, Y106I
VL: B1 VL
B4: KB001 parental mouse Fab VH variant M104L (Fab, V domains shown)
VH: B1 VH with K103A, M104L
VL: B1 VL
B5: KB001 parental mouse Fab (WT) (Fab, V domains shown)
VH: B1 VH with K103A
VL: B1 VL
B6: KB001 parental mouse Fab VH variant A103I (Fab, V domains shown)
VH: B1 VH with K103I
VL: B1 VL
B7: KB001 parental mouse Fab VH variant Y106D (Fab, V domains shown)
VH: B1 VH with K103A, Y106D
VL: B1 VL
B8: KB001 parental mouse Fab VH variant Y106H (Fab, V domains shown)
VH: B1 VH with K103A, Y106H
VL: B1 VL
B9: KB001 parental mouse Fab VH variant Y106Q (Fab, V domains shown)
VH: B1 VH with K103A, Y106Q
VL: B1 VL
B10: KB001 parental mouse Fab VH variant Y106K (Fab, V domains shown)
VH: B1 VH with K103A, Y106K
VL: B1 VL
B11: KB001 parental mouse Fab VH variant M104V (Fab, V domains shown)
VH: B1 VH with K103A, M104V
VL: B1 VL
B12: KB001 parental mouse Fab VH variant A103C (Fab, V domains shown)
VH: B1 VH with K103C
VL: B1 VL

molecular target: HRgpA-6H (Porphyromonas gingivalis) (UniProt P28784); assay: ELISA, Fab FASEBA supernatant on coated HRgpA-6H (0.0625 ug/ml)
Sequence of UniProt P28784 (P28784 228-991 limits assumed): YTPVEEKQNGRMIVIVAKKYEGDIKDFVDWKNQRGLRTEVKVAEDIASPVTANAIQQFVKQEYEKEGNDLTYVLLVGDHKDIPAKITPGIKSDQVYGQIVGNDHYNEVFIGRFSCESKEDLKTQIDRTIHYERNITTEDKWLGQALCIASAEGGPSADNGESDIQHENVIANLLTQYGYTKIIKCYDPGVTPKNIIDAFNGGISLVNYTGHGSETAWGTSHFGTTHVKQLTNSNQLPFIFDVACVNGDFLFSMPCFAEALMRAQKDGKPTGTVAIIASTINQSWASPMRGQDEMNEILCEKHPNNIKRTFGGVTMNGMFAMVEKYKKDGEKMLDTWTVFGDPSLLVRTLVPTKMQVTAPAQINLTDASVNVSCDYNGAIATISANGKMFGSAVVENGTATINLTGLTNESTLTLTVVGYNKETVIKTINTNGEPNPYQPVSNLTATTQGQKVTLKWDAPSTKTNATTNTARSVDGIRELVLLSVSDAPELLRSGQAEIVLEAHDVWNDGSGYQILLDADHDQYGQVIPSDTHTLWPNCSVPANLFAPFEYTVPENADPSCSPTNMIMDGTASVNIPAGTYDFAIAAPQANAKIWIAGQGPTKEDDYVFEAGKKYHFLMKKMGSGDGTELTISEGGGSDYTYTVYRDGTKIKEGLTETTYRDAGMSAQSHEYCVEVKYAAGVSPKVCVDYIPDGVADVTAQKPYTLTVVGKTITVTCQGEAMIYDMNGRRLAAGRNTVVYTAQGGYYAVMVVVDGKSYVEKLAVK

Row | Binder | OD450nm | Ratio OD(Variant)/OD(WT)
1 | B1 | 0.723 | 0.839
2 | B2 | 0.733 and 0.748 | 0.953 and 0.973
3 | B3 | 0.73 and 0.728 and 0.764 | 0.949 and 0.947 and 0.993
4 | B4 | 0.786 | 0.904
5 | B5 | 0.831 | 0.956
6 | B6 | 0.695 and 0.693 | 0.806 and 0.804
7 | B7 | 0.675 | 0.878
8 | B8 | 0.722 | 0.939
9 | B9 | 0.768 | 0.999
10 | B10 | 0.767 | 0.997
11 | B11 | 0.654 | 0.85
12 | B12 | 0.77 | 0.893
